The results in this text go back to the RNAGym collection of RNA variant scans (doi:10.7554/elife.80360).

B1: CPEB3 Ribozyme (parent)
chain: GGGGGCCACAGCAGAAGCGUUCACGUCGCGGCCCCUGUCAGAUUCUGGUGAAUCUGCGAAUUCUGCUGU

This data set covers variants of B1. The data set is described as follows: self-cleavage, relative activity (ratio to wild type); higher = more cleavage; co-transcriptional.
On to G25C C34U, for which the self-cleavage amounted to 0.219.
The same measure for G25A G41A: 0.174; for G25U C29U: 0.206; for G25A C54U: 0.248.
The same measure for C24U G37C: 0.223.
As for C24U G37A, the figure is 0.167.
As to G25U A42G, the self-cleavage was determined as 0.129.
Consider G25U C35U, for which the self-cleavage was determined as 0.139.
As for C24U A40C, the figure is 0.228; as for G25A C45G, 0.142.
The same measure for G25A C45U: 0.132.
As to G25C G58U, the self-cleavage turned out to be 0.134.
The same measure for G25C G58A: 0.212; for G25C U64G: 0.155; for G25C U64C: 0.181.
For G25A U44C, the self-cleavage is 0.0881.
In the case of G25C U43A, the self-cleavage worked out at 0.139.
The same measure for G25C A51U: 0.152.
As for C24U G68A, the figure is 0.919.
As for G25C U53A, the self-cleavage is 0.125.
As for C24G U69G, the figure is 0.63; as for C24G U69A, 0.509.
As for G25C C32U, the figure is 0.179; as for C24U U53G, 0.482; as for C24U U53A, 0.64.
In the case of G25C U46C, the self-cleavage was 0.218.
As for G25A G50U, the figure is 0.267; as for G25A G50A, 0.195.
As for G25A G50C, the figure is 0.28; as for C24U C32U, 0.805.
As for C24U A51U, the figure is 0.785; as for C24U A51G, 0.774; as for G25U G41C, 0.103.
As for G25U G41U, the self-cleavage is 0.173.
Consider G25U A59G, for which the self-cleavage was 0.174.
As for G25C G48C, the figure is 0.147.
The same measure for C24U A52G: 0.819; for C24U A52U: 0.81.
The same measure for G25C C35G: 0.124; for C24U U38G: 0.166; for C24U U55G: 0.367.
Turning to C24U U55A, the self-cleavage was found to be 0.651.
The same measure for C24U U55C: 0.391; for G25C G56C: 0.164; for G25C G56U: 0.256.
On to G25A C34G, for which the self-cleavage was found to be 0.19.
C24U U62G: the self-cleavage was 0.386.
The same measure for G25C C57G: 0.141; for G25C C57U: 0.143; for C24U U69C: 1.02.
Turning to G25U C63G, the self-cleavage was 0.175.
For the variant G25C C63G, the self-cleavage came out at 0.176.
As for G25C C63A, the figure is 0.235; as for G25A U62G, 0.16.
As for C24U G47C, the figure is 0.915; as for G25C A60U, 0.114.
As for G25U C32A, the figure is 0.162.
Regarding G25U C32U, the self-cleavage stood at 0.228.
As for C24U G31C, the figure is 0.0935; as for G25U G37U, 0.103.
The same measure for G25U G37A: 0.156; for G25C G28C: 0.153.
Turning to C24G U67C, the self-cleavage was determined as 0.522.
As for C24G U67G, the figure is 0.508; as for G25U G56A, 0.171.
Turning to G25U G56C, the self-cleavage is 0.158.
On to G25C G41U, for which the self-cleavage was 0.144.
As for G25A G47U, the figure is 0.198; as for G25A G47C, 0.217; as for C24G U49G, 0.565.
With C24G U49A, the self-cleavage is 0.59.
Regarding G25C C27A, the self-cleavage was found to be 0.146.
The same measure for C24U U49C: 0.84; for C24U U49A: 0.865; for G25C U69G: 0.309.
As for G25C U69A, the figure is 0.221.
Regarding C24U U46G, the self-cleavage was determined as 0.879.
As for G25U C34A, the figure is 0.153; as for G25A G56A, 0.154.
The same measure for G25A G56C: 0.213; for C24U U36A: 0.181; for C24U U36C: 0.37.
As for C24G U64A, the figure is 0.325.
On to C24U C57A, for which the self-cleavage worked out at 0.309.
As for G25U G47A, the figure is 0.188; as for G25U G47U, 0.148; as for G25A C63A, 0.104.
Consider G25A C63G, for which the self-cleavage stood at 0.185.
The same measure for C24U G25U: 0.146; for G25A C57G: 0.129; for G25A U26A: 0.186.
As for C24U C39U, the figure is 0.549; as for C24U C39G, 0.619.
The same measure for C24U C39A: 0.315; for G25C U49C: 0.185.
Regarding C24U U67A, the self-cleavage came to 0.862.
The same measure for G25U C27A: 0.213; for G25U C27U: 0.164.
As for G25C U44G, the figure is 0.139; as for G25C U44C, 0.144.
As for G25A A60C, the figure is 0.142; as for G25A U61A, 0.173.
For G25A G48C, the self-cleavage stood at 0.218.
As for G25A U67A, the figure is 0.21.
The same measure for G25C G50C: 0.179; for G25U C45G: 0.133.
As for C24U C35A, the figure is 0.17; as for C24U C35G, 0.202; as for G25C U26C, 0.319.
G25C U26A: the self-cleavage amounted to 0.252.
The same measure for G25C U26G: 0.176; for G25C G65A: 0.216.
As for G25C C29A, the figure is 0.143; as for G25A U49A, 0.155; as for C24U A42C, 0.673.
As for G25C G31A, the self-cleavage was 0.217.
The same measure for G25A C66G: 0.223; for C24U C63U: 0.719; for C24U C63A: 0.391.
For the variant G25A U46G, the self-cleavage came to 0.174.
The same measure for C24U G65C: 0.353; for G25A A51C: 0.209; for G25C C45A: 0.204.
For the variant C24U C54G, the self-cleavage was determined as 0.586.
The same measure for G25C U36A: 0.201; for G25C U36C: 0.24; for G25A G30U: 0.209.
C24U G28C: the self-cleavage worked out at 0.191.
The same measure for C24U G28A: 0.174.
The same measure for C24U G28U: 0.214; for G25A U69G: 0.327; for C24U A60G: 0.464.
The same measure for C24U A60U: 0.299.
For the variant G25C C33G, the self-cleavage stood at 0.235.
The same measure for C24U G50U: 0.852.
As to G25A C35A, the self-cleavage is 0.21.
For C24U A59U, the self-cleavage amounted to 0.414.
As for C24G U55C, the figure is 0.292; as for G25A U55A, 0.222; as for G25C U61C, 0.0705.
The same measure for G25C U61A: 0.193.
As for G25U G30U, the self-cleavage amounted to 0.162.
As for C24U C27A, the self-cleavage was 0.229.
The same measure for G25A A40G: 0.172; for G25U C66G: 0.187; for G25U C66A: 0.133.
The same measure for G25A G28A: 0.131; for G25A G28U: 0.132; for C24U G30C: 0.152.
C24U U26G: the self-cleavage came to 0.448.
With C24U U26A, the self-cleavage was found to be 0.257.
The same measure for C24U U26C: 0.626.
The same measure for C24U C45U: 0.829; for G25U G28U: 0.145; for G25C G37U: 0.156.
As for C24U G41C, the figure is 0.303.
Regarding G25U C39A, the self-cleavage amounted to 0.137.
As for C24U U64G, the figure is 0.466; as for G25A G65U, 0.134.
As for G25A G65C, the figure is 0.178; as for G25C U67C, 0.115.
The same measure for C24G U62C: 0.148; for C24U G58A: 0.516; for G25A C32A: 0.22.
For G25U A60G, the self-cleavage is 0.229.
The same measure for G25U A60C: 0.132.
G25U A60U: the self-cleavage was 0.13.
